# Laboratory results published in IntAct's records for PubMed 25416956.
# B1: Chorion-specific transcription factor GCMb (Homo sapiens), O75603 (parent)
# chain: MPAAAVQEAVGVCSYGMQLSWDINDPQMPQELALFDQFREWPDGYVRFIYSSDEKKAQRHLSGWAMRNTNNHNGHILKKSCLGVVVCTQACTLPDGSRLQLRPAICDKARLKQQKKACPNCHSALELIPCRGHSGYPVTNFWRLDGNAIFFQAKGVHDHPRPESKSETEARRSAIKRQMASFYQPQKKRIRESEAEENQDSSGHFSNIPPLENPEDFDIVTETSFPIPGQPCPSFPKSDVYKATCDLATFQGDKMPPFQKYSSPRIYLPRPPCSYELANPGYTNSSPYPTLYKDSTSIPNDTDWVHLNTLQCNVNSYSSYERSFDFTNKQHGWKPALGKPSLVERTNHGQFQAMATRPYYNPELPCRYLTTPPPGAPALQTVITTTTKVSYQAYQPPAMKYSDSVREVKSLSSCNYAPEDTGMSVYPEPWGPPVTVTRAASPSGPPPMKIAGDCRAIRPTVAIPHEPVSSRTDEAETWDVCLSGLGSAVSYSDRVGPFFTYNNEDF
# B2: Beta-crystallin A4 (Homo sapiens), P53673 (parent)
# chain: MTLQCTKSAGPWKMVVWDEDGFQGRRHEFTAECPSVLELGFETVRSLKVLSGAWVGFEHAGFQGQQYILERGEYPSWDAWGGNTAYPAERLTSFRPAACANHRDSRLTIFEQENFLGKKGELSDDYPSLQAMGWEGNEVGSFHVHSGAWVCSQFPGYRGFQYVLECDHHSGDYKHFREWGSHAPTFQVQSIRRIQQ
# partner: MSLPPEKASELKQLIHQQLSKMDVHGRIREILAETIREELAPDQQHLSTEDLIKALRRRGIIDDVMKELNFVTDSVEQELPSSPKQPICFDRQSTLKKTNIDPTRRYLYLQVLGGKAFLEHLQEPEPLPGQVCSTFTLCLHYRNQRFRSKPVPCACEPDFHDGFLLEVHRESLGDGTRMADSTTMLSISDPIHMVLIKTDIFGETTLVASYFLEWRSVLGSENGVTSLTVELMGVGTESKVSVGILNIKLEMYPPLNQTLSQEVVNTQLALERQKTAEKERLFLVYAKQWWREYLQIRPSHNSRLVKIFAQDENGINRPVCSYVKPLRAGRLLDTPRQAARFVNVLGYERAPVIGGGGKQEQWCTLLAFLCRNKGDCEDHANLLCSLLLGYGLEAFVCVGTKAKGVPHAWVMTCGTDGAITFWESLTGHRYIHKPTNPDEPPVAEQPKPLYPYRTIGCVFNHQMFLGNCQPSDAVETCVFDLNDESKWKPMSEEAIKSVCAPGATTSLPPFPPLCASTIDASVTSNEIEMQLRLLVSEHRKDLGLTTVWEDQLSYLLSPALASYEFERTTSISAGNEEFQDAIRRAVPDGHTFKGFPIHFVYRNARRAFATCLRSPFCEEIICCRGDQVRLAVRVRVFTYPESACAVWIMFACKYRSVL
# B3: TERF1-interacting nuclear factor 2 (Homo sapiens), Q9BSI4 (parent)
# chain: MATPLVAGPAALRFAAAASWQVVRGRCVEHFPRVLEFLRSLRAVAPGLVRYRHHERLCMGLKAKVVVELILQGRPWAQVLKALNHHFPESGPIVRDPKATKQDLRKILEAQETFYQQVKQLSEAPVDLASKLQELEQEYGEPFLAAMEKLLFEYLCQLEKALPTPQAQQLQDVLSWMQPGVSITSSLAWRQYGVDMGWLLPECSVTDSVNLAEPMEQNPPQQQRLALHNPLPKAKPGTHLPQGPSSRTHPEPLAGRHFNLAPLGRRRVQSQWASTRGGHKERPTVMLFPFRNLGSPTQVISKPESKEEHAIYTADLAMGTRAASTGKSKSPCQTLGGRALKENPVDLPATEQKENCLDCYMDPLRLSLLPPRARKPVCPPSLCSSVITIGDLVLDSDEEENGQGEGKESLENYQKTKFDTLIPTLCEYLPPSGHGAIPVSSCDCRDSSRPL
# B4: Plakophilin-2 (Homo sapiens), Q99959 (parent)
# chain: MAAPGAPAEYGYIRTVLGQQILGQLDSSSLALPSEAKLKLAGSSGRGGQTVKSLRIQEQVQQTLARKGRSSVGNGNLHRTSSVPEYVYNLHLVENDFVGGRSPVPKTYDMLKAGTTATYEGRWGRGTAQYSSQKSVEERSLRHPLRRLEISPDSSPERAHYTHSDYQYSQRSQAGHTLHHQESRRAALLVPPRYARSEIVGVSRAGTTSRQRHFDTYHRQYQHGSVSDTVFDSIPANPALLTYPRPGTSRSMGNLLEKENYLTAGLTVGQVRPLVPLQPVTQNRASRSSWHQSSFHSTRTLREAGPSVAVDSSGRRAHLTVGQAAAGGSGNLLTERSTFTDSQLGNADMEMTLERAVSMLEADHMLPSRISAAATFIQHECFQKSEARKRVNQLRGILKLLQLLKVQNEDVQRAVCGALRNLVFEDNDNKLEVAELNGVPRLLQVLKQTRDLETKKQITDHTVNLRSRNGWPGAVAHACNPSTLGGQGGRITRSGVRDQPDQHGLLWNLSSNDKLKNLMITEALLTLTENIIIPFSGWPEGDYPKANGLLDFDIFYNVTGCLRNMSSAGADGRKAMRRCDGLIDSLVHYVRGTIADYQPDDKATENCVCILHNLSYQLEAELPEKYSQNIYIQNRNIQTDNNKSIGCFGSRSRKVKEQYQDVPMPEEKSNPKGVEWLWHSIVIRMYLSLIAKSVRNYTQEASLGALQNLTAGSGPMPTSVAQTVVQKESGLQHTRKMLHVGDPSVKKTAISLLRNLSRNLSLQNEIAKETLPDLVSIIPDTVPSTDLLIETTASACYTLNNIIQNSYQNARDLLNTGGIQKIMAISAGDAYASNKASKAASVLLYSLWAHTELHHAYKKAQFKKTDFVNSRTAKAYHSLKD
# partner: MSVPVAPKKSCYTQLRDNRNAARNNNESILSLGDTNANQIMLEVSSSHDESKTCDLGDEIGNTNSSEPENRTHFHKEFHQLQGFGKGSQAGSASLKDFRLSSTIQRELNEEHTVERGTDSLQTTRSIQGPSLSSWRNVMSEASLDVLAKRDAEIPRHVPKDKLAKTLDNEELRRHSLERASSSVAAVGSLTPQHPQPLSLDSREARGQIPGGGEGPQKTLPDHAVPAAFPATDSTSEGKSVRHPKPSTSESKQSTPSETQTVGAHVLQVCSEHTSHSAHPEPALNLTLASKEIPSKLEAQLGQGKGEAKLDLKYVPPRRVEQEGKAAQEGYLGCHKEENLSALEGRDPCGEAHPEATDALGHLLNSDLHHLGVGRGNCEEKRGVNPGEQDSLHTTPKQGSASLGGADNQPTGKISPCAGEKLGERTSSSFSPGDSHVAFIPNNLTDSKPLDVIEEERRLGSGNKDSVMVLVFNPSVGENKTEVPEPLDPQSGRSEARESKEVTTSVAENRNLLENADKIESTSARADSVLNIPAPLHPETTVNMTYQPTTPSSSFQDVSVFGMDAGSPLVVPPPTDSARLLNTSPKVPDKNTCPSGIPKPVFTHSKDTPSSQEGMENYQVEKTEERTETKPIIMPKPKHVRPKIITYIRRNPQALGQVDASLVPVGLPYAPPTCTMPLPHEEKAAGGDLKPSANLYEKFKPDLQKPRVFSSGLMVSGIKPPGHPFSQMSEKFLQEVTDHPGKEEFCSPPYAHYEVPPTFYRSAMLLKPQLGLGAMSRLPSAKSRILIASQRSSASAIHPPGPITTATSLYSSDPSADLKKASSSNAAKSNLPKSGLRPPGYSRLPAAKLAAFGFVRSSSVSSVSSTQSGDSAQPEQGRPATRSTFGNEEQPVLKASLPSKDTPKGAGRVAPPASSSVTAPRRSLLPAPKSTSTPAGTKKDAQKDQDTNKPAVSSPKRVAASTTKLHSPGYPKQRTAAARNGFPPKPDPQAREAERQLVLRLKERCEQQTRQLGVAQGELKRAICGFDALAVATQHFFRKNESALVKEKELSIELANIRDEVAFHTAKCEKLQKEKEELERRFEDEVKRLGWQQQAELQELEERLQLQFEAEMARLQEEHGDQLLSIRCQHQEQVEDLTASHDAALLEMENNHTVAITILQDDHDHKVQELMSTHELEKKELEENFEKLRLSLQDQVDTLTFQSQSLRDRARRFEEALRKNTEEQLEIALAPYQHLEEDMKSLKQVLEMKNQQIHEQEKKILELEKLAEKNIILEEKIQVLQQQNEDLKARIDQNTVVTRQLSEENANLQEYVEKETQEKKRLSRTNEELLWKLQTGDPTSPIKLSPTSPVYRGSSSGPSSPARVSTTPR
# B5: Keratin, type II cytoskeletal 6A (Homo sapiens), P02538 (parent)
# chain: MASTSTTIRSHSSSRRGFSANSARLPGVSRSGFSSVSVSRSRGSGGLGGACGGAGFGSRSLYGLGGSKRISIGGGSCAISGGYGSRAGGSYGFGGAGSGFGFGGGAGIGFGLGGGAGLAGGFGGPGFPVCPPGGIQEVTVNQSLLTPLNLQIDPTIQRVRAEEREQIKTLNNKFASFIDKVRFLEQQNKVLETKWTLLQEQGTKTVRQNLEPLFEQYINNLRRQLDSIVGERGRLDSELRGMQDLVEDFKNKYEDEINKRTAAENEFVTLKKDVDAAYMNKVELQAKADTLTDEINFLRALYDAELSQMQTHISDTSVVLSMDNNRNLDLDSIIAEVKAQYEEIAQRSRAEAESWYQTKYEELQVTAGRHGDDLRNTKQEIAEINRMIQRLRSEIDHVKKQCANLQAAIADAEQRGEMALKDAKNKLEGLEDALQKAKQDLARLLKEYQELMNVKLALDVEIATYRKLLEGEECRLNGEGVGQVNISVVQSTVSSGYGGASGVGSGLGLGGGSSYSYGSGLGVGGGFSSSSGRAIGGGLSSVGGGSSTIKYTTTSSSSRKSYKH
# Variants of: B1
# Conditions: with rbpms_human RBPMS
row,effect of a mutation on the interaction,Variant
1,disrupting interaction,G63S

# Variants of: B2
# Conditions: with cep76_human CEP76, Q8TAP6
row,effect of a mutation on the interaction,Variant
1,disrupting interaction,V36M

# Variants of: B2
# Conditions: with cep76_human CEP76, Q8TAP6
# Remark: another data set of the same source
row,effect of a mutation on the interaction,Variant
1,disrupting interaction,L69P

# Variants of: B2
# Conditions: with cep76_human CEP76, Q8TAP6
# Remark: another data set of the same source
row,effect of a mutation on the interaction,Variant
1,disrupting interaction,F94S

# Variants of: B3
# Conditions: with acd_human ACD
row,effect of a mutation on the interaction,Variant
1,disrupting interaction,P236S

# Variants of: B4
# Conditions: with mtus2_human MTUS2, Q5JR59
row,effect of a mutation on the interaction,Variant
1,disrupting interaction,S644P

# Variants of: B4
# Conditions: with mtus2_human MTUS2, Q5JR59
# Remark: another data set of the same source
row,effect of a mutation on the interaction,Variant
1,disrupting interaction,S140F

# Variants of: B5
# Conditions: with tfp11_human TFIP11, Q9UBB9
# Chain of tfp11_human TFIP11, Q9UBB9 (Q9UBB9 whole entry): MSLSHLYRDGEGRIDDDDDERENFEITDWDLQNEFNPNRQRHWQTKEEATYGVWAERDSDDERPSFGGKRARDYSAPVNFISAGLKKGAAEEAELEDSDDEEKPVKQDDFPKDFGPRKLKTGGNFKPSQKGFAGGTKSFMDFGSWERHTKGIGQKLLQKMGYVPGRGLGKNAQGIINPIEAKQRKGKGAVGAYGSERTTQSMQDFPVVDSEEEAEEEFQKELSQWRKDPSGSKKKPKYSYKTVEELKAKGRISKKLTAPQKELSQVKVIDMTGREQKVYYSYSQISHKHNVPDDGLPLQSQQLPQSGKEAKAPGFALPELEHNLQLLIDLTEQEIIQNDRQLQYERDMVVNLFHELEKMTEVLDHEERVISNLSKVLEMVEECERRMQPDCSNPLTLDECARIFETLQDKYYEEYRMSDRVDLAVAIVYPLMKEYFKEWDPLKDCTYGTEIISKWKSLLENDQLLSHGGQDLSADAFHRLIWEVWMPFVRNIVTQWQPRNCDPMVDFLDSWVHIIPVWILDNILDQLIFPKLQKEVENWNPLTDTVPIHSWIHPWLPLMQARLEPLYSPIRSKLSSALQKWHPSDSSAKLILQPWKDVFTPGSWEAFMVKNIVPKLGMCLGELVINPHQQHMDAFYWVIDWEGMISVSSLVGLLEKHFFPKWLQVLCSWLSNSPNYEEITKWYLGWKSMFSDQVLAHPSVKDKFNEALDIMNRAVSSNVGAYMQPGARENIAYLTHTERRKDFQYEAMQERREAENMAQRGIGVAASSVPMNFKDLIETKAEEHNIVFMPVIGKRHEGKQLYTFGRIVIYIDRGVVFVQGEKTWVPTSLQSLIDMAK
row,effect of a mutation on the interaction,Variant
1,disrupting interaction,A463P

# Variants of: B5
# Conditions: with tfp11_human TFIP11, Q9UBB9
# Remark: another data set of the same source
row,effect of a mutation on the interaction,Variant
1,disrupting interaction,I462S
